Assay results: US10538802B2, “Polypeptide substrate for the detection of von Williebrand factor cleaving protease ADAMTS13” (IMMUCOR GTI DIAGNOSTICS, INC., priority 2011, dated 2020)

Target: T1, ADAMTS13 (Homo sapiens, UniProt Q76LX8)
T1 construct: tissue Gen-Probe GTI Diagnostics (ATS-13 kit calibrators, controls and proficiency samples); George King Biomedical Inc. (FACT, A-FACT, B-FACT plasmas) ATS-13; host or cells: plasma
T1 sequence (Q76LX8 75-1427): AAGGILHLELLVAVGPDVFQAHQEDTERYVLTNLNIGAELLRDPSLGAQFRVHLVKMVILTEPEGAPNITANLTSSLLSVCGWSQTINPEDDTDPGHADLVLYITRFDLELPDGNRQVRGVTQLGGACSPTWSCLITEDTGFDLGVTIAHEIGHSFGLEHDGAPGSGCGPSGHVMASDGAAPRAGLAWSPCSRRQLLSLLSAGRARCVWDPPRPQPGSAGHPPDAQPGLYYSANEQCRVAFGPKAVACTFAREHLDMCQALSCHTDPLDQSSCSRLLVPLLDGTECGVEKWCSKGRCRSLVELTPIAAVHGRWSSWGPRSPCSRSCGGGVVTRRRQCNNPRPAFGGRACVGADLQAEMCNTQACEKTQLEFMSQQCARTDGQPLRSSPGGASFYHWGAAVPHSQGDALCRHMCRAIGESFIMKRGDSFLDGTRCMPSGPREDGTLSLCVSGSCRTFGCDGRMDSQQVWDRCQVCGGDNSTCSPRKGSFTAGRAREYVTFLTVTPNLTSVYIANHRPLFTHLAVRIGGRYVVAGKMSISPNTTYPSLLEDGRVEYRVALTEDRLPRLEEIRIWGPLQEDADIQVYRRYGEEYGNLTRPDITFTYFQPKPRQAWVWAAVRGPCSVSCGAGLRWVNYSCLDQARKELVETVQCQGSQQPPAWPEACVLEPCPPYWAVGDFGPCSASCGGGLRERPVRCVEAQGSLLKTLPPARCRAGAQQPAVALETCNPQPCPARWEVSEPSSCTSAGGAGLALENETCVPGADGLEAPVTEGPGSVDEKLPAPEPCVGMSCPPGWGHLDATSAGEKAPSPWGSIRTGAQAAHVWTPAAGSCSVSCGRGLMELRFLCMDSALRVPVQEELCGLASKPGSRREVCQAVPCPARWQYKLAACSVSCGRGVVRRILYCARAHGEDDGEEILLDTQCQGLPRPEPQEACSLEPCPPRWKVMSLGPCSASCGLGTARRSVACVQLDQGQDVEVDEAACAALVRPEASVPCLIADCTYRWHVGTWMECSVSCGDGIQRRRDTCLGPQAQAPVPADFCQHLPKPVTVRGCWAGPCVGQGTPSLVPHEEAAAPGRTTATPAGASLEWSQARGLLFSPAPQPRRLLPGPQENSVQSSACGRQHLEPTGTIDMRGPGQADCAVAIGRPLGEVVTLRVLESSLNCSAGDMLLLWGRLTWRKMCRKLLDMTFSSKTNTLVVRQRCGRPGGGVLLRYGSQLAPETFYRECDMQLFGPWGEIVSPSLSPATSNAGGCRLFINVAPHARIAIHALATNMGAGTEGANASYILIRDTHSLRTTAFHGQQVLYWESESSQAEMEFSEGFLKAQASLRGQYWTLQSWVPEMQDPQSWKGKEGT
Experiment: ADAMTS13 activity assay with fluorogenic (FRET) polypeptide substrate and diluted plasma samples
Format: biochemical
Settings: for % Normal ADAMTS13 Activity: 30 Minute Incubation Time: Table 5
Method: The procedure in this example was performed substantially as described in Kokame, K., Y. Nobe, Y. Kokubo, A. Okayama, and T. Miyata. 2005. FRETS-VWF73, a first fluorogenic substrate for ADAMTS13 assay. Br. J. Haematol. 129:93-100, but using SEQ ID NO: 1 in place of the 73 amino acid substrate described therein. The FRETS-VWF73 substrate solution was dissolved in 25% dimethyl sulphoxide/water to prepare the 100 microM stock solution. The GTI FRET4 SEQ ID NO: 1 was dissolved in 100% DMSO. Both substrates were diluted to equal concentrations using ATS-13 substrate buffer (Gen-Probe GT1 Diagnostics, Inc., U.S.A., Cat#ATS-13).
Plasma samples were diluted according to the ATS-13 Direction Insert using ATS-13 specimen diluent (Gen-Probe GTI Diagnostics, Inc., U.S.A., Cat# ATS-13). The diluted plasma samples were mixed with the diluted substrate and the fluorescence was read at 0, 5, 10, 15, 20, 30, 45 minutes using a Biotek FLX800 at the appropriate excitation and emission wavelengths for each substrate.
The fluorophore-quencher pair in the SEQ ID NO: 1 polypeptide substrate is FAM-5/TQ 2^Tm (Ex 485±20; Em 528±20; AAT Bioquest, Inc. Sunnyvale, Calif. U.S.A.). The fluorophore and quencher pair of FRETS-VWF73 (Nma/Dnp) described in Kokame has been substituted with FAM-5 and TQ_2 respectively in GTI_FRET4 SEQ ID NO: 1. Furthermore, in the SEQ ID NO: 1 polypeptide the position of the fluorophore (FAM-5) and quencher (TQ_2) has been swapped relative to the position of the fluorophore and quencher of the FRETS-VWF73 construct. Therefore, for GTI_FRET4 SEQ ID NO: 1, attachment of the fluorophore (FAM-5) occurs by substituting asparagine with cystine at position 15. The quencher (TQ_2) was attached by substituting glutamine with lysine at position 4 (FIG. 2 and Table 4).
For this experiment, substrate concentration and fluorescence reader settings determined on the previous experiment are used. The specimens tested (listed in Table 3), include a panel of proficiency samples prepared for use with ATS-13 (Gen-Probe GTI Diagnostics, Inc., U.S.A., Cat# ATS-13) which included samples with normal or deficient ADAMTS13 activity levels. In addition, six Factor Assay ConTrol plasma were used (2 FACT, 2 A-FACT and 2 B-FACT, from George King Biomedical Inc., Kansas, USA). The assays for the SEQ ID NO: 1 substrate and for the prior art FRETS-VWF73 assay were performed generally as according to the procedure described in Example 1. Substrate is prepared according to the conditions used for initial testing of the substrate, which prepared the molar amount of SEQ ID NO: 1 polypeptide substrate used in the assay to be equivalent to the molar amount of FRETS-VWF73 used in the prior art. The […] assays were read at 0, 5, 10, 15, 20, 30, 45 minutes.
Testing of substrate for cleavability by ADAMTS13 is determined as is generally described in Example 1. […]

## DREKAPNLVYMVTGCPASDEIKRLPGDIQVVPIEVIGWPNAPILIQDEETLPREAPDLVLQR [GTI_FRET4]
  time through which the calibration curve continued to be linear: ≤ 45 min
  trend line of the calibration curve: linear
Example 1
  time at which the calculated % N ADAMTS13 activity plateaus: 30 min
Example 1, at 30 minutes
  difference between Calibrator A (0% ADAMTS13 activity) and Calibrator E (100% ADAMTS13 activity), dynamic range: approximately 34,000 RFU
Example 2, at 30 minutes
  difference between Calibrator A and E, dynamic range: approximately 35000 RFU
Sample 5 (ATS13-5)
  % Normal ADAMTS13 Activity: 30 Minute Incubation Time: 7 % Normal
Sample 22 (ATS13-4)
  % Normal ADAMTS13 Activity: 30 Minute Incubation Time: 21 % Normal
Sample 50 (ATS13-3)
  % Normal ADAMTS13 Activity: 30 Minute Incubation Time: 47 % Normal
Sample 72 (ATS13-2)
  % Normal ADAMTS13 Activity: 30 Minute Incubation Time: 72 % Normal
Sample 90 (ATS13-1)
  % Normal ADAMTS13 Activity: 30 Minute Incubation Time: 92 % Normal
Sample A-FACT lot 900
  % Normal ADAMTS13 Activity: 30 Minute Incubation Time: 10 % Normal
Sample A-FACT lot 1284
  % Normal ADAMTS13 Activity: 30 Minute Incubation Time: 10 % Normal
Sample B-FACT lot 1114
  % Normal ADAMTS13 Activity: 30 Minute Incubation Time: 45 % Normal
Sample B-FACT lot 1266
  % Normal ADAMTS13 Activity: 30 Minute Incubation Time: 46 % Normal
Sample BCM2
  % Normal ADAMTS13 Activity: 30 Minute Incubation Time: 19 % Normal
Sample BCM2 HI
  % Normal ADAMTS13 Activity: 30 Minute Incubation Time: 12 % Normal
Sample BCM2 mixed
  % Normal ADAMTS13 Activity: 30 Minute Incubation Time: 51 % Normal
Sample CNTL
  % Normal ADAMTS13 Activity: 30 Minute Incubation Time: <Calibrator A
Sample CNTL HI
  % Normal ADAMTS13 Activity: 30 Minute Incubation Time: <Calibrator A
Sample CNTL mixed
  % Normal ADAMTS13 Activity: 30 Minute Incubation Time: 4 % Normal
Sample Calibrator A
  % Normal ADAMTS13 Activity: 30 Minute Incubation Time: 4 % Normal
Sample Calibrator B
  % Normal ADAMTS13 Activity: 30 Minute Incubation Time: 9 % Normal
Sample Calibrator C
  % Normal ADAMTS13 Activity: 30 Minute Incubation Time: 29 % Normal
Sample Calibrator D
  % Normal ADAMTS13 Activity: 30 Minute Incubation Time: 61 % Normal
Sample Calibrator E
  % Normal ADAMTS13 Activity: 30 Minute Incubation Time: 110 % Normal
Sample FACT lot 222e1
  % Normal ADAMTS13 Activity: 30 Minute Incubation Time: 111 % Normal
Sample FACT lot 1223
  % Normal ADAMTS13 Activity: 30 Minute Incubation Time: 107 % Normal
Sample NPP032206
  % Normal ADAMTS13 Activity: 30 Minute Incubation Time: >Calibrator E
Sample NPP032206 HI
  % Normal ADAMTS13 Activity: 30 Minute Incubation Time: 9 % Normal
Sample NPP032206 at 37C
  % Normal ADAMTS13 Activity: 30 Minute Incubation Time: 106 % Normal
Sample NPP032206 mixed
  % Normal ADAMTS13 Activity: 30 Minute Incubation Time: 57 % Normal
Sample Positive Control High
  % Normal ADAMTS13 Activity: 30 Minute Incubation Time: 50 % Normal
Sample Positive Control Low
  % Normal ADAMTS13 Activity: 30 Minute Incubation Time: 14 % Normal
Sample UAMS041609
  % Normal ADAMTS13 Activity: 30 Minute Incubation Time: 31 % Normal
Sample VF040901
  % Normal ADAMTS13 Activity: 30 Minute Incubation Time: 10 % Normal
Sample Calibrator A, 15 min
  Increase in Fluorescence Values (X minute - 0 minute Reading): 676 RFU
Sample Calibrator A, 30 min
  Increase in Fluorescence Values (X minute - 0 minute Reading): 843 RFU
Sample Calibrator A, 45 min
  Increase in Fluorescence Values (X minute - 0 minute Reading): 921 RFU
Sample Calibrator A, 60 min
  Increase in Fluorescence Values (X minute - 0 minute Reading): 1,166 RFU
Sample Calibrator A, 75 min
  Increase in Fluorescence Values (X minute - 0 minute Reading): 1,013 RFU
Sample Calibrator A, 90 min
  Increase in Fluorescence Values (X minute - 0 minute Reading): 959 RFU
Sample Calibrator A, incubation 15 Minutes
  % Normal ADAMTS13 Values Calculated Using GTI_FRET4 Substrate: 1 % Normal
Sample Calibrator A, incubation 30 Minutes
  % Normal ADAMTS13 Values Calculated Using GTI_FRET4 Substrate: 1 % Normal
Sample Calibrator A, incubation 45 Minutes
  % Normal ADAMTS13 Values Calculated Using GTI_FRET4 Substrate: 0 % Normal
Sample Calibrator A, incubation 60 Minutes
  % Normal ADAMTS13 Values Calculated Using GTI_FRET4 Substrate: 0 % Normal
Sample Calibrator A, incubation 75 Minutes
  % Normal ADAMTS13 Values Calculated Using GTI_FRET4 Substrate: 0 % Normal
Sample Calibrator A, incubation 90 Minutes
  % Normal ADAMTS13 Values Calculated Using GTI_FRET4 Substrate: 0 % Normal
Sample Calibrator B, 15 min
  Increase in Fluorescence Values (X minute - 0 minute Reading): 1,765 RFU
Sample Calibrator B, 30 min
  Increase in Fluorescence Values (X minute - 0 minute Reading): 3,000 RFU
Sample Calibrator B, 45 min
  Increase in Fluorescence Values (X minute - 0 minute Reading): 4,164 RFU
Sample Calibrator B, 60 min
  Increase in Fluorescence Values (X minute - 0 minute Reading): 5,358 RFU
Sample Calibrator B, 75 min
  Increase in Fluorescence Values (X minute - 0 minute Reading): 6,468 RFU
Sample Calibrator B, 90 min
  Increase in Fluorescence Values (X minute - 0 minute Reading): 7,581 RFU
Sample Calibrator B, incubation 15 Minutes
  % Normal ADAMTS13 Values Calculated Using GTI_FRET4 Substrate: 7 % Normal
Sample Calibrator B, incubation 30 Minutes
  % Normal ADAMTS13 Values Calculated Using GTI_FRET4 Substrate: 7 % Normal
Sample Calibrator B, incubation 45 Minutes
  % Normal ADAMTS13 Values Calculated Using GTI_FRET4 Substrate: 7 % Normal
Sample Calibrator B, incubation 60 Minutes
  % Normal ADAMTS13 Values Calculated Using GTI_FRET4 Substrate: 7 % Normal
Sample Calibrator B, incubation 75 Minutes
  % Normal ADAMTS13 Values Calculated Using GTI_FRET4 Substrate: 6 % Normal
Sample Calibrator B, incubation 90 Minutes
  % Normal ADAMTS13 Values Calculated Using GTI_FRET4 Substrate: 6 % Normal
Sample Calibrator C, 15 min
  Increase in Fluorescence Values (X minute - 0 minute Reading): 6,178 RFU
Sample Calibrator C, 30 min
  Increase in Fluorescence Values (X minute - 0 minute Reading): 11,701 RFU
Sample Calibrator C, 45 min
  Increase in Fluorescence Values (X minute - 0 minute Reading): 16,807 RFU
Sample Calibrator C, 60 min
  Increase in Fluorescence Values (X minute - 0 minute Reading): 21,705 RFU
Sample Calibrator C, 75 min
  Increase in Fluorescence Values (X minute - 0 minute Reading): 26,685 RFU
Sample Calibrator C, 90 min
  Increase in Fluorescence Values (X minute - 0 minute Reading): 32,209 RFU
Sample Calibrator C, incubation 15 Minutes
  % Normal ADAMTS13 Values Calculated Using GTI_FRET4 Substrate: 32 % Normal
Sample Calibrator C, incubation 30 Minutes
  % Normal ADAMTS13 Values Calculated Using GTI_FRET4 Substrate: 33 % Normal
Sample Calibrator C, incubation 45 Minutes
  % Normal ADAMTS13 Values Calculated Using GTI_FRET4 Substrate: 33 % Normal
Sample Calibrator C, incubation 60 Minutes
  % Normal ADAMTS13 Values Calculated Using GTI_FRET4 Substrate: 34 % Normal
Sample Calibrator C, incubation 75 Minutes
  % Normal ADAMTS13 Values Calculated Using GTI_FRET4 Substrate: 35 % Normal
Sample Calibrator C, incubation 90 Minutes
  % Normal ADAMTS13 Values Calculated Using GTI_FRET4 Substrate: 36 % Normal
Sample Calibrator D, 15 min
  Increase in Fluorescence Values (X minute - 0 minute Reading): 10,887 RFU
Sample Calibrator D, 30 min
  Increase in Fluorescence Values (X minute - 0 minute Reading): 20,626 RFU
Sample Calibrator D, 45 min
  Increase in Fluorescence Values (X minute - 0 minute Reading): 29,206 RFU
Sample Calibrator D, 60 min
  Increase in Fluorescence Values (X minute - 0 minute Reading): 37,289 RFU
Sample Calibrator D, 75 min
  Increase in Fluorescence Values (X minute - 0 minute Reading): 44,543 RFU
Sample Calibrator D, 90 min
  Increase in Fluorescence Values (X minute - 0 minute Reading): 53,613 RFU
